In paper PMC9482650, “Quantitative fragmentomics allow affinity mapping of interactomes” (Nature Communications, 2022):

T1: GRIP1_3, Q9Y3R0
T1 sequence (Q9Y3R0 247-346, limits assumed, looked up): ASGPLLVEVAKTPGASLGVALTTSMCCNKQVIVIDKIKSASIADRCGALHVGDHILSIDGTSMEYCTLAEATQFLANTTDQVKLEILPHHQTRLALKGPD

T2: APBA1_2, Q02410
T2 sequence (Q02410 742-832, limits assumed, looked up): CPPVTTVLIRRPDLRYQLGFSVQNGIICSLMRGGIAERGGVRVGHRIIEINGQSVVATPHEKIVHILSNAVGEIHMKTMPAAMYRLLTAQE

T3: APBA2_1, Q99767
T3 sequence (Q99767 563-664, limits assumed, looked up): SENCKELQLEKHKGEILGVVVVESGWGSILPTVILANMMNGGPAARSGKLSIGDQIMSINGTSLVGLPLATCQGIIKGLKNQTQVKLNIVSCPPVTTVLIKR

T4: SYNJ2BP, P57105
T4 sequence (P57105 8-110, limits assumed, looked up): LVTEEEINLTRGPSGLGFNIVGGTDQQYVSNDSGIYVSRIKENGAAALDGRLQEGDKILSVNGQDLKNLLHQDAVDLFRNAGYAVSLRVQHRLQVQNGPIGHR

T5: NHERF3_3, Q5T2W1
T5 sequence (Q5T2W1 238-333, limits assumed, looked up): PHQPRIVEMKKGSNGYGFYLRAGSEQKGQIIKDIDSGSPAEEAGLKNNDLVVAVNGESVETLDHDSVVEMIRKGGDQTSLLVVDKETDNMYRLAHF

T6: RHPN1, Q8TCX5
T6 sequence (Q8TCX5 508-602, limits assumed, looked up): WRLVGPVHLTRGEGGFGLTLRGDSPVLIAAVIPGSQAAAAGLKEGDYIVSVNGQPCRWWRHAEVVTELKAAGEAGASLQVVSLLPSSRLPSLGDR

T7: MPP2, Q14168
T7 sequence (Q14168 180-250, limits assumed, looked up): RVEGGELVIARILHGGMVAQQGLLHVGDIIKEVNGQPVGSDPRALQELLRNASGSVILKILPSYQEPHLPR

T8: NHERF3_1, Q5T2W1
T8 sequence (Q5T2W1 4-100, limits assumed, looked up): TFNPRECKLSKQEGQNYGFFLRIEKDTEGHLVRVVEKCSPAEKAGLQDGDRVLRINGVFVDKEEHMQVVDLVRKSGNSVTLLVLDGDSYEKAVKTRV

T9: APBA1_1, Q02410
T9 sequence (Q02410 651-752, limits assumed, looked up): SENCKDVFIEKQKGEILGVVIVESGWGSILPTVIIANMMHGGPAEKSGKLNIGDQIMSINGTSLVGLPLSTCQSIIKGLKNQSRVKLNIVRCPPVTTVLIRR

T10: LNX2_2, Q8N448
T10 sequence (Q8N448 334-432, limits assumed, looked up): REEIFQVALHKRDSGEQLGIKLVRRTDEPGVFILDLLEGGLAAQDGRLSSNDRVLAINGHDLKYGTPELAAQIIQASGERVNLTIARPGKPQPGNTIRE

T11: GRIP1_5, Q9Y3R0
T11 sequence (Q9Y3R0 568-668, limits assumed, looked up): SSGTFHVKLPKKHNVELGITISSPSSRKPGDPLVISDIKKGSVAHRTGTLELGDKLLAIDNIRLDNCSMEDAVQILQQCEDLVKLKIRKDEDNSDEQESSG

T12: DLG3_2, Q92796
T12 sequence (Q92796 221-321, limits assumed, looked up): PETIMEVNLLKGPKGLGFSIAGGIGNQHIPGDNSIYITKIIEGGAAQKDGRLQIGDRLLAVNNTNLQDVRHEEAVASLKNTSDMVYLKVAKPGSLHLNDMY

B1: HDAC7, Q8WUI4 (peptide)
chain: LVEEEEPMNL
B2: CACNA1D, Q01668 (peptide)
chain: ADEMICITTL

target: GRIP2_4, Q9C0E4; test: holdup assay; set-up: key: below the threshold = too weak to quantify, mostly under pKd 3.1 to 4; conditions: plain residues with an end cap or a label only (N-terminal biotin on a linker: ado-ado)
Sequence (Q9C0E4 446-548): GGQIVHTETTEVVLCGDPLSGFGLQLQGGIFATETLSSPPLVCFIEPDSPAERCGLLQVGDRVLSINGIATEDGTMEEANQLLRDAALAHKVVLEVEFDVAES

| Binder | pKd |
| --- | --- |
| B1 | below the threshold |
| B2 | below the threshold |

target: GRID2IP_2, A4D2P6; test: holdup assay; set-up: key: below the threshold = too weak to quantify, mostly under pKd 3.1 to 4; conditions: plain residues with an end cap or a label only (N-terminal biotin on a linker: ado-ado)
Sequence (A4D2P6 272-370): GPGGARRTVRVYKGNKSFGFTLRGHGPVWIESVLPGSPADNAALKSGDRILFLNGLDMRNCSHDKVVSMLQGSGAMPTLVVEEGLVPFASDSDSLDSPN

| Binder | pKd |
| --- | --- |
| B1 | below the threshold |
| B2 | 4.94 |

target: NOS1, P29475; test: holdup assay; set-up: key: below the threshold = too weak to quantify, mostly under pKd 3.1 to 4; conditions: plain residues with an end cap or a label only (N-terminal biotin on a linker: ado-ado)
Sequence (P29475 9-101): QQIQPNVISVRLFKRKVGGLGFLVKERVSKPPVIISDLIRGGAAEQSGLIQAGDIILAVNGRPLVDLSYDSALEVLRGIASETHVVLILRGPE

| Binder | pKd |
| --- | --- |
| B1 | below the threshold |
| B2 | 3.58 |

target: FRMPD3, Q5JV73; test: holdup assay; set-up: key: below the threshold = too weak to quantify, mostly under pKd 3.1 to 4; conditions: plain residues with an end cap or a label only (N-terminal biotin on a linker: ado-ado)
Sequence (Q5JV73 12-100): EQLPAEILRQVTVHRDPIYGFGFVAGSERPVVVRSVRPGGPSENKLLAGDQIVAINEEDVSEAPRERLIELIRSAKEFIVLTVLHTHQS

| Binder | pKd |
| --- | --- |
| B1 | below the threshold |
| B2 | below the threshold |

target: DLG4_2, P78352; test: holdup assay; set-up: key: below the threshold = too weak to quantify, mostly under pKd 3.1 to 4; conditions: plain residues with an end cap or a label only (N-terminal biotin on a linker: ado-ado)
Sequence (P78352 155-259): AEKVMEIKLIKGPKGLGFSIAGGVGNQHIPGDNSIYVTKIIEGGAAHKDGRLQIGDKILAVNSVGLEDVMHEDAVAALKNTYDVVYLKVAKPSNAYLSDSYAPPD

| Binder | pKd |
| --- | --- |
| B1 | below the threshold |
| B2 | 4.02 |

target: T1, GRIP1_3, Q9Y3R0; test: holdup assay; set-up: key: below the threshold = too weak to quantify, mostly under pKd 3.1 to 4; conditions: plain residues with an end cap or a label only (N-terminal biotin on a linker: ado-ado)

| Binder | pKd |
| --- | --- |
| B1 | below the threshold |
| B2 | below the threshold |

target: T2, APBA1_2, Q02410; test: holdup assay; set-up: key: below the threshold = too weak to quantify, mostly under pKd 3.1 to 4; conditions: plain residues with an end cap or a label only (N-terminal biotin on a linker: ado-ado)

| Binder | pKd |
| --- | --- |
| B1 | below the threshold |
| B2 | 4.01 |

target: T3, APBA2_1, Q99767; test: holdup assay; set-up: key: below the threshold = too weak to quantify, mostly under pKd 3.1 to 4; conditions: plain residues with an end cap or a label only (N-terminal biotin on a linker: ado-ado)

| Binder | pKd |
| --- | --- |
| B1 | below the threshold |
| B2 | below the threshold |

target: PICK1, Q9NRD5; test: holdup assay; set-up: key: below the threshold = too weak to quantify, mostly under pKd 3.1 to 4; conditions: plain residues with an end cap or a label only (N-terminal biotin on a linker: ado-ado)
Sequence (Q9NRD5 17-115): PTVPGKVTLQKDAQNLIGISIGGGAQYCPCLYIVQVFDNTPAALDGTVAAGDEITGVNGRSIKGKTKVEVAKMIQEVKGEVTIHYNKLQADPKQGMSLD

| Binder | pKd |
| --- | --- |
| B1 | 4.11 |
| B2 | 4.14 |

target: MAGI1_1, Q96QZ7; test: holdup assay; set-up: key: below the threshold = too weak to quantify, mostly under pKd 3.1 to 4; conditions: plain residues with an end cap or a label only (N-terminal biotin on a linker: ado-ado)
Sequence (Q96QZ7 1-106): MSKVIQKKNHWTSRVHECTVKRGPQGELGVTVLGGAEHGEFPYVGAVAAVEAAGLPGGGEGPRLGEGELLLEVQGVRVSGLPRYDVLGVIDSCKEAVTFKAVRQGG

| Binder | pKd |
| --- | --- |
| B1 | below the threshold |
| B2 | 3.51 |

target: T4, SYNJ2BP, P57105; test: holdup assay; set-up: key: below the threshold = too weak to quantify, mostly under pKd 3.1 to 4; conditions: plain residues with an end cap or a label only (N-terminal biotin on a linker: ado-ado)

| Binder | pKd |
| --- | --- |
| B1 | below the threshold |
| B2 | 4.24 |

target: GRIP2_5, Q9C0E4; test: holdup assay; set-up: key: below the threshold = too weak to quantify, mostly under pKd 3.1 to 4; conditions: plain residues with an end cap or a label only (N-terminal biotin on a linker: ado-ado)
Sequence (Q9C0E4 544-642): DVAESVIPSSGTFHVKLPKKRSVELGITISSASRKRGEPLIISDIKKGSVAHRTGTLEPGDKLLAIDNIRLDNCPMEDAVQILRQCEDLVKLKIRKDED

| Binder | pKd |
| --- | --- |
| B1 | below the threshold |
| B2 | below the threshold |

target: T5, NHERF3_3, Q5T2W1; test: holdup assay; set-up: key: below the threshold = too weak to quantify, mostly under pKd 3.1 to 4; conditions: plain residues with an end cap or a label only (N-terminal biotin on a linker: ado-ado)

| Binder | pKd |
| --- | --- |
| B1 | below the threshold |
| B2 | below the threshold |

target: T6, RHPN1, Q8TCX5; test: holdup assay; set-up: key: below the threshold = too weak to quantify, mostly under pKd 3.1 to 4; conditions: plain residues with an end cap or a label only (N-terminal biotin on a linker: ado-ado)

| Binder | pKd |
| --- | --- |
| B1 | below the threshold |
| B2 | 5.05 |

target: IL16_3, Q14005; test: holdup assay; set-up: key: below the threshold = too weak to quantify, mostly under pKd 3.1 to 4; conditions: plain residues with an end cap or a label only (N-terminal biotin on a linker: ado-ado)
Sequence (Q14005 1107-1207): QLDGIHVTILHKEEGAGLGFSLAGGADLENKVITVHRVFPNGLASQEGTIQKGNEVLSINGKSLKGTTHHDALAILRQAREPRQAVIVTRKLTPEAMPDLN

| Binder | pKd |
| --- | --- |
| B1 | below the threshold |
| B2 | below the threshold |

target: T7, MPP2, Q14168; test: holdup assay; set-up: key: below the threshold = too weak to quantify, mostly under pKd 3.1 to 4; conditions: plain residues with an end cap or a label only (N-terminal biotin on a linker: ado-ado)

| Binder | pKd |
| --- | --- |
| B1 | below the threshold |
| B2 | below the threshold |

target: DLG2_3, Q15700; test: holdup assay; set-up: key: below the threshold = too weak to quantify, mostly under pKd 3.1 to 4; conditions: plain residues with an end cap or a label only (N-terminal biotin on a linker: ado-ado)

| Binder | pKd |
| --- | --- |
| B1 | below the threshold |
| B2 | 3.81 |

target: T8, NHERF3_1, Q5T2W1; test: holdup assay; set-up: key: below the threshold = too weak to quantify, mostly under pKd 3.1 to 4; conditions: plain residues with an end cap or a label only (N-terminal biotin on a linker: ado-ado)

| Binder | pKd |
| --- | --- |
| B1 | below the threshold |
| B2 | 4.22 |

target: T9, APBA1_1, Q02410; test: holdup assay; set-up: key: below the threshold = too weak to quantify, mostly under pKd 3.1 to 4; conditions: plain residues with an end cap or a label only (N-terminal biotin on a linker: ado-ado)

| Binder | pKd |
| --- | --- |
| B1 | below the threshold |
| B2 | below the threshold |

target: Inadl_8, Q8NI35; test: holdup assay; set-up: key: below the threshold = too weak to quantify, mostly under pKd 3.1 to 4; conditions: plain residues with an end cap or a label only (N-terminal biotin on a linker: ado-ado)
Sequence (Q8NI35 1425-1530): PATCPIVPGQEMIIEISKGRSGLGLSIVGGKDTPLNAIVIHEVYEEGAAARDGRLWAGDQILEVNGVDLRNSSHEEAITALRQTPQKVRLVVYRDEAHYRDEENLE

| Binder | pKd |
| --- | --- |
| B1 | below the threshold |
| B2 | 3.61 |

target: HTRA1, Q92743; test: holdup assay; set-up: key: below the threshold = too weak to quantify, mostly under pKd 3.1 to 4; conditions: plain residues with an end cap or a label only (N-terminal biotin on a linker: ado-ado)
Sequence (Q92743 360-477): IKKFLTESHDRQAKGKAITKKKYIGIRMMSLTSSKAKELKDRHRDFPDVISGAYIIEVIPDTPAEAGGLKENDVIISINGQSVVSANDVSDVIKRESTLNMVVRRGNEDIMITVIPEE

| Binder | pKd |
| --- | --- |
| B1 | 4.16 |
| B2 | 5.79 |

target: T10, LNX2_2, Q8N448; test: holdup assay; set-up: key: below the threshold = too weak to quantify, mostly under pKd 3.1 to 4; conditions: plain residues with an end cap or a label only (N-terminal biotin on a linker: ado-ado)

| Binder | pKd |
| --- | --- |
| B1 | below the threshold |
| B2 | 3.93 |

target: T11, GRIP1_5, Q9Y3R0; test: holdup assay; set-up: key: below the threshold = too weak to quantify, mostly under pKd 3.1 to 4; conditions: plain residues with an end cap or a label only (N-terminal biotin on a linker: ado-ado)

| Binder | pKd |
| --- | --- |
| B1 | below the threshold |
| B2 | below the threshold |

target: T12, DLG3_2, Q92796; test: holdup assay; set-up: key: below the threshold = too weak to quantify, mostly under pKd 3.1 to 4; conditions: plain residues with an end cap or a label only (N-terminal biotin on a linker: ado-ado)

| Binder | pKd |
| --- | --- |
| B1 | below the threshold |
| B2 | 4.46 |

target: PDLIM1, O00151; test: holdup assay; set-up: key: below the threshold = too weak to quantify, mostly under pKd 3.1 to 4; conditions: plain residues with an end cap or a label only (N-terminal biotin on a linker: ado-ado)
Sequence (O00151 1-87): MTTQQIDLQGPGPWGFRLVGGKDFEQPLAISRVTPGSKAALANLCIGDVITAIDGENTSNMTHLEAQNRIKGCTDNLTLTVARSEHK

| Binder | pKd |
| --- | --- |
| B1 | below the threshold |
| B2 | below the threshold |

target: DLG4_1, P78352; test: holdup assay; set-up: key: below the threshold = too weak to quantify, mostly under pKd 3.1 to 4; conditions: plain residues with an end cap or a label only (N-terminal biotin on a linker: ado-ado)
Sequence (P78352 62-152): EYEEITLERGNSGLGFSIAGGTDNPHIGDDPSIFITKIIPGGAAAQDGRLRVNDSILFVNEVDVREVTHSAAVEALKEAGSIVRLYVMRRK

| Binder | pKd |
| --- | --- |
| B1 | below the threshold |
| B2 | below the threshold |
